# According to the nanobody polyreactivity screen of Harvey et al. (2022):
# Experiment: yeast display, Sf9 membrane polyspecificity reagent, FACS + sequencing; frameworks hold sequencing errors
# How it was run: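 After 36–48 hours of galactose induction, yeast (Saccharomyces cerevisiae BJ5465) displaying a synthetic nanobody library were stained at 4 °C for 1 hour with 10% biotinylated, detergent-solubilized Sf9 membrane reagent. Streptavidin microbeads enriched the stained cells before FACS sorting into low and high (top ~1%) gates on anti-HA and streptavidin fluorescence. Each clone's polyreactivity label reflects its gate of origin.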
row,Sequence,polyreactivity (PSR sort gate)
1,QVQLVESGGGLGQAGGSLRLSCAASGLIFNIYARGWYSQAPGKDRELVATIRYSGGSTNYADSVKGRVTISRDNAKNTVNLQMKSLNPEDTAVYYCNAGYYPTGYDYWGQGTQVTVSS,low polyreactivity
2,QDQLVESAGGLLQAGGSLRLSCAASGSTFKYNAMGWYRQAPGKERELVDSITRGGNTNYADSVKGRFTISRDNAKNTVYLLMNSLKTEDTAFYYCAAQLMRDLRSPYSYNYWGQGTQVTVSS,low polyreactivity
3,QVQLVESGGGLVQAGGSLRLSCAASGRIFSRYAMGWYRQAPGKERELVAAITWSVGSTYYADSVKGRFTISRDNAKNTVYLQMNSLKPEDTAVSYCAKLVRYYKPGYDYGGQGTQVTVSS,low polyreactivity
4,QVQLVESGGGLVQAGGSLRLSCAASGFTFPLNAMGWYRQAPWKERELVAAITNGGTTYYADSVKGRFTISRDNAKNTVYLQMNSLKPEDTGVYYCAAYTYRYGSFKYGYWGQGTQVTVSS,low polyreactivity
5,QVQLVESGGGLVQAGCSLRLSCASSGRIFYGNAMGWYRQAPGKERELVAAISKSGASTYYADSVKGRFTISRDNAKNTVYLQMNSLKPEDTAVYYCAAETPRRKYNYWGQGSQVTVSS,high polyreactivity
6,QVQLVESGGGLVQAGGSLRLSCAASGSTLIANAMGWYRQAPGKERELVAGITYRGGDITTYADSVKGRFTISRDTAKNTVYLQMNSLKPEDTAVYYCAARVVWPTWARGGYWGQGTQVTVSS,low polyreactivity
7,QVQLVVSGGGLVQAGGSLRLSCAASGRTFRSYAMGWYRQAPGKERELVAAISYGGGSTYYADSVKGRFTISRDNAKNTVYLQMNSLKPEDTAVYYCAAAVYKRGGYDYWGQGTQVTVSS,high polyreactivity
8,QVQLEESGGGLVQAGGRLRLSCAASGSIFDLNAMGRYRQAPGKERELVAAISQRGTRTYYADSVKGRFTISRDNAKNNVYLQMNSLIPEDTAVYYCAVGNGLSRYVYGDYEYWGQGTQVTVSS,high polyreactivity
9,QVQLVESGAGLVQAGCRLRLSCASSGIIFSPNAIGWYRQAPGKERELVAAISKRGGSTYYADSVKGRFTISRDNAKNTVYLQLHSLKQEDTAVYYCAKRQQQSSGYDYWGQGTQVTVSS,high polyreactivity
10,QVQLVESGGGLVQAGGSLRLSCAASGRTFFHNPMGWYRQAPGKERELVAAISSGGGTYADSVKGRFTISRDNAKNTVYLQINSLKPEDTAVYYCAATLYNTEDDYWGQGTQVTVSS,low polyreactivity
11,QVQLVESGGGLVQAGGSLRLSCAASGSTFRYYALGWYRQAPGKEREVVASISIGGGSTYYADSVKGRFTISRDYAKNTVYVQMNSLKPEDTAVYYCAAERTIRAARPFFRTFDYWGQGTQVTVSS,low polyreactivity
12,QVQLVESGGGLVQAGGSLRLSCAASGRIFGFYAMGLYRQAPGKERELVARITLSGGRTYYADSVKGRFTISRDNAKNTVYLQMNSLKPEDTAVYYCAADSIGRLWGYGYWGQGTQVTVSS,high polyreactivity
13,PVQLVESGGGLVQAGGSLRLSCAASGFTFFYYAMGGYRQGPGKERELVAALNWSGGRTYYADSVKGRFTISRDNAKNTVYLQRNSLKPEDTAVYYCAVDRSWSTRYPAYPGGYWGQGTQVTVSS,high polyreactivity
14,QVQLVESGGGLVQAGGSLRLSCAASGITFTVYAMGWYRQARGKERELVAAINSGSSTNYADSVKGRFTISRDNAKNTVFLQMNSLKPEDTAVYYCAASYRKLPDKKRYGYWGQGTQVTVSS,high polyreactivity
15,QVQLVESGGGLVQAGGSLRLSCAASGRIFYFYAMGWYRQAPGKEREMVASISYSGGNTYYADSVKGRFTISRDNAKNTVYLQMNSLKPEDTAVYYCNVLPNTGARGYYYWGQGTQVTVSS,low polyreactivity
16,QVQLVESGGGLVQAGGSLRLSCAASGRIFHYYAMGWYRQAPGKEWELVAAISTSGGSTYYADSVKGRFTISRDNANNTVYIQMNSLKPEDTAVYYCAAVLPRYRRFDYWGQGTQVTVSS,high polyreactivity
17,QVQLVESGGGLVQAGGSLRLSCAASGTIFGKYAMGWYRQAPGKERELDAAISRAGGRTYYADSVKGRFTISRDNAKNTVYLQMNSLIPEDTAVYYCNAGNLHSGGQRWNLYYWGQCTQVTVSS,high polyreactivity
18,QVQLVESGGGLVQAGGSLRLSCAASGSTFYGYAMGWYRQAPGKERELVAAITRSGGSTYYADSVKGRFTISRDNAKNTVYLQMNSLKPEDTAVYYCAAEFRYSRVYGYNYWGQGSQVTVSS,high polyreactivity
19,QVQLVESGGGLVQAGGSLRLSCAASGRIFRYYAMGWFRQAPGKERELVASISRRGGSTNYADSVKGRFTISRDNAKNTVDLQMNSLKPEDTAVYYCNAENSSPRGLYNYWGQGTQVTVSS,high polyreactivity
20,QVQLVESGGGLVQAGGSLRLSCAASGRTFYRNAMGWYRQAPGKERELVAAISSGGSTTYADSVKGRFTISRDNAKNTVYLQMNSLKPEDTAVYYCAARSHAGSVSPRLKEYDYWGQGTQVTVSS,low polyreactivity
21,QVQLVESGGGLVQAGGSLRLSCAASGSTFPTNAMGWYRPAPGKERELVATFTTGGSTYYADSVKGRFTISRDNAKNTVYLQMNSLKPVDTAVYYCNAEYVYLIFSVYLYDYDYWGQVTQVTVSS,low polyreactivity

row,Sequence,polyreactivity (PSR sort gate)
1,QVQLVESGGGLVQAGGSLRLSCAASGLTLYRNAMGWYRQAPGKERELVATINFSGGSKYYADSVKGRFTISRDNAKNTVYLQMNSLKPEDTAVYFCNARGYWHYSPTKFDYWGQGTQVTVSS,low polyreactivity
2,QVQLVESGGGLVQAGGSLRLSCAASGITFGAYTMGWYRQAPGKERELVAAISGSGGSTYYADSVKGRFTISRDNAKNTVYLQMNSLKPEDTAVTYCNKVLSPHLGCSFDYWGQGTEVTVSS,high polyreactivity
3,QVQLVESGGGLVQAGCSLRLSCAASGSTFFFNAMGWYRQAPGKERELVAAITGRCGSTYYADSVKGRFTISRDNAKNTVYLQMNSLIPEDTAVYYCAAEGVPYWSSRFWRYDYWGQGTQVTVSS,low polyreactivity
4,QVQLVESGGGLVQAGGSLRLSSAASGRIFYNYAMGWYRQSPGKERELVAAISGSGGSTYYADSVKGRFTISRDNAKNTVYLQMNSLKPEDTAVFYCSTSGPQYYSRNFDYWGQGTQVTVSS,low polyreactivity
5,QVQLVDSGGGLVQAGGSLRLSCSASVRTFRGTAMGWYRHAPGKEREMVAPITYRTGSKYYPDSVKGRFTNSRDNAKNTVYLLLNSLKPEDSAVYYCAAVSGRSYDKDYFWGQGTQVTVSS,high polyreactivity
6,QVQLVESGGGLVQAGGSLRLSCAASGRTLGTNAMGWYRQAPGKERELVASISKRGGSTYYADSVKGRFTISRDNAKNTVYLQMNSLKPEDTAVYYCAALFLSHIYYYWGQGTQVTVSS,high polyreactivity
7,QVQLVESGGGLVQAGGSLRLSCAASGRTFTVYAMGWYRQAPGKERELVAAISSGGITYYADSVKGRFTISRDNAKNTVYLQMNSLKPEDTAVYYCNTKSGKARYEFGYWGQGTQVTVSS,low polyreactivity
8,QVQLVESGGGLVQAGGSLRLSCAASGGIFYSNAMGWYRPAPGKERELVAAISSSGGSTYYADSVKGRFTISRDNAKNTVYLQMNSLKPEDTAVYYCAARPTVRPVVRFGYWGQGTQVTVSS,high polyreactivity
9,QVQLVESGGGLVQAGGSLLLSCAASGFTFDYYAMGWYRQAPGKERELVAAITWSGGSTYYADSVKGRFTISRDNAKNTVYLQMNSLKPEDTAVYYCNAYYYHLYRGSTSYDYWGQGTQVTVSS,low polyreactivity
10,QVQLVESGGGLVQAGGSLRLSCADSGRIIDTYAMVWYRQAPGKERELVASISRSDTSTSNADSVKGRFTISRDNAKNTVYLQMNSLKPEDTAVYYCNKDGVPVNNTKRYDYWGQGTQVTVSS,low polyreactivity
11,QVQLQESGGGLVQAGGSLRLSCAASGYISHADEMGWYRQAPGKEHELVASISNGGSTNYADSVKGRFTISRDNAKNTVYLQMNSLKSELTAVYYCAAWTGQVDIHYYWGQGTQVTVSS,low polyreactivity
12,QVQLVESGGGLVQAGGSLRLSCAASGRTFIVYAMGWYRQAPGKERELVARISSGSRTSYADSVKGRFTISRDNAKNTVYLQMNSLKPEDTAVYYCAKSRVIKYEFDYWGQGTQVTVSS,low polyreactivity
13,QVQLVESGGGLVQAGGSLRLSCAASGSTFQWYTMGWYRQAPGKERECVAAISRSGGRTYYADSVKGRFTISRDNAKNTVYLQMNSLKPVDTAVYYCAKYYYLYWSSQRDYWGQGTQVTVSS,high polyreactivity
14,QVQLVESGGGLVQAGGSLRLSCAATGRTFQFNAMGRYRQAPGKERELVAAITSNGGSTNYADSVKGRFTISRDNAKNTVYVQMNSLKPEDTAVYYSAAPRFRYYYWDMDYWGQGTQVTVSS,low polyreactivity
15,QVQLVESGGGLVQAGRSLRLSCAASGRIFRQNAMGWYRPAPGKETELVAAIDWNGTSTYADSVKGRFTISRDNAKNTVYFQLNSLKPVDTAVYYCTARYGRTSPDGDYWGQGTQVTVSS,low polyreactivity
16,QVQLVESGGGLVQAGGSLRLSCAASGYIYYQYAMGWSRQAPGKERELVAGINWRGGSTYADSVKGRFTISRDNAKNTVYLQMNSLKPEDTEVYYCNAKQYRQDVFRRPSYYAYYYWGQGTQVTVSS,high polyreactivity
17,QVQLLETGGGLVQAGGSLRLSCAASGNTIIRYAMGWYRQAPGTERELVAAISYSGGRSYYADSVKGRFTISRDNAKYTVYLLMNSLKPEDTEVYYCIAASRYGGDYWGQVTQVTVSS,low polyreactivity
18,QVQLVESGGRLVQAGGSLRLSCAASGSTFQFNVMGWYRQAPGKERELVAAITSGASTYYADSVKGRFTISRDNAKNTVYLQMNSLEPEDTAVYYCAVDYSFRYDYVQRYYYWGQGTQVTVSS,high polyreactivity
19,QVQLVESGGGLVQAGGSLRLSCAASGRTFRPYAMGWYRQAPGKEREFVARITWSGGTTYYADSVKGRFTISRDNAKNTVYLQMNSLKPEDTAVYYCAARVSRQTPLISYNYWGQGTQVTVSS,low polyreactivity
20,QVQLLESGVGLVQAGGSLRLSCAASGSILYINALGWSRPAPGKARELVAAITYSGGSTYYADSVKGRFTISRDNAKKPVYLQMNSLKPEDTAVYYCAADAVVAGRYDGHAYWGQGTQVTVSS,low polyreactivity
